{"source": "paper PMC7596504", "about": "“Molecular mechanism of the MORC4 ATPase activation” (Nature Communications, 2020)", "key": {"MORC4": {"tested_on": "MORC4", "assay": "ATPase activity assay (EnzChek Phosphate Assay Kit)", "assay_type": "biochemical, human", "design": "Rate of ATP hydrolysis: unit not given here", "settings": "for Rate of ATP hydrolysis: no DNA, no peptide", "method": "To determine whether MORC4 is catalytically active, we produced the ATPase domain of human MORC4 and examined its ability to hydrolyze ATP in enzymatic assays (Fig. 1a–c). Following incubation of the ATPase domain with ATP, 2-amino-6-mercapto-7-methylpurine ribonucleoside and nucleoside phosphorylase, the release of inorganic phosphate generated by the hydrolysis of ATP to ADP was monitored by measuring an increase in absorbance at 360 nm.\nThe ATPase assays were performed using the EnzChek Phosphate Assay Kit (Invitrogen, item # E6646). The reactions were carried out on 1.0 µM of MORC4 His-ATPase or ATPaseCW (WT and mutants), in the presence and absence of 1 µM 601 DNA or 50 µM of unmodified H3 or H3K4me3 peptide (aa 1–12 of H3) in a buffer containing 50 mM Tris-HCl (pH 7.5), 150 mM NaCl, 1 mM MgCl2, 0.1 mM sodium azide, 200 µM MESG, and 1 U of PNP. In assay with the nucleosome, 0.5 µM of MORC4 ATPaseCW and 0.5 µM NCP167 (Activemotif) were used. The reaction was started by adding 2 mM ATP to the mixture at room temperature, and the release of inorganic phosphate was monitored by measuring the absorbance at 360 nm on a Nanodrop 2000c spectrophotometer (Thermo Scientific). In the presence of inorganic phosphate, produced by the hydrolysis of ATP to ADP, MESG is enzymatically converted to ribose 1-phosphate and […] by PNP, resulting in a shift in the wavelength absorbance from 330 nm for MESG to 360 nm for the product. The rate of ATP self-hydrolysis was measured in parallel. Error was calculated as the S.D. of at least three separate experiments (two in Fig. 4j)."}, "MORC4 CW domain": {"biological_target": "T1, MORC4 CW domain (Homo sapiens, UniProt Q8TE76)", "T1 construct": "The CW domain (aa 417–475) of MORC4 was cloned into a pGEX 6p-1 vector; GST (N, cleaved yes); made in house; host or cells: E. coli Rosetta2 (DE3) pLysS or BL21 (DE3) RIL", "T1 sequence (Q8TE76 417-475)": "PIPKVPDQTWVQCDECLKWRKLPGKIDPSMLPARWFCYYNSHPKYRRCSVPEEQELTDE", "assay": "1H,15N HSQC NMR titration of MORC4 CW", "assay_type": "binding", "method": "NMR experiments were carried out at 298 K on a Varian INOVA 600 and 900 MHz spectrometers. His-tagged MORC4 ATPase (1–411) was expressed and purified as described above and used without cleavage of the tag. NMR samples contained 0.1 mM uniformly ^15N-labeled WT or mutated CW in 20 mM Tris-HCl (pH 7) buffer supplemented with 100 mM NaCl, 5 mM DTT, and 10% D2O. Binding was characterized by monitoring CSPs in the proteins induced by H3 peptides or the ATPase domain. For the CWKRR mutant, NMR experiments were performed in 20 mM Tris-HCl (pH 6.8) buffer supplemented with 150 mM NaCl, 2 mM DTT, and 10% D2O."}, "NCP147 [1]": {"tested_on": "NCP147", "assay": "Fluorescence polarization binding to NCP147"}, "NCP207": {"tested_on": "NCP207", "assay": "Fluorescence polarization binding to NCP207", "method": "Fluorescence polarization measurements were acquired with a Tecan infinite M1000Pro plate reader by exciting at 470 nm and measuring polarized emission at 519 nm with 5 nm excitation and emission bandwidths. The fluorescence polarization was calculated from the emission polarized parallel and perpendicular to the polarized excitation light. Fluorescence polarization measurements were carried out using increasing concentrations of MORC4 ATPaseCW, ATPase alone, or CW alone with 5 nM 207 bp Fluorescein-labeled NCPs in 15 mM Tris pH 7.5, 75 mM NaCl, 0.00625% Tween 20, and 5 mM dithiothreitol buffer in 30 µL reaction volumes. The samples were loaded into a Corning round bottom black polystyrene plate and incubated at room temperature for 10 min before fluorescence polarization measurements of the samples were taken. The data were then fit to a non-cooperative binding isotherm to determine S1/2 values. Errors represent a S.D. between the S1/2 values based on three runs.\nHistone octamers unlabeled or labeled with Cy5 at H2AK119 were prepared as previously described. NCPs were reconstituted by combining octamer with 1.25× excess DNA and performing slow salt dialysis. Free DNA was then separated from fully reconstituted NCPs by sucrose gradient purification. NCPs for fluorescence polarization assays were reconstituted from unlabeled octamer and 207 bp DNA containing the 601 Widom sequence flanked with a 30 bp linker on either side and internally labeled with Fluorescein 27 bp in from the 5′ end. Cy3-Cy5 labeled NCPs for FRET assays were reconstituted with Cy5 labeled octamer plus either 147 bp 601 Widom DNA containing a LexA transcription factor binding site at bases 8–27[34], or 252 bp DNA containing the 601 Widom sequence with a 75 bp linker at the 3′ end, a 30 bp linker at the 5’ end, and a Gal4 transcription factor binding site at bases 8–26 in the 601 Widom sequence. The 147 bp LexA-binding DNA was labeled with Cy3 on the 5′ end, and the 252 bp Gal4-binding DNA was internally labeled with Cy3 34 bp in from the 5′ end."}, "NCP147 [2]": {"tested_on": "NCP147", "assay": "EMSA with NCP147", "assay_type": "binding", "settings": "5 nM 147 bp fluorescein-labeled NCP, pH 7.5, 4 °C", "method": "EMSAs were performed by mixing increasing amounts of MORC4 ATPase with 5 nM 147 bp fluorescein-labeled NCP in 25 mM Tris-HCl pH 7.5, 75 mM NaCl, 25 mM Tris-HCl pH 7.5, 0.005% Tween 20, and 10% glycerol buffer in a 12 μL reaction volume. Each sample was incubated at 4 °C for 5 min and then loaded onto a 5% native polyacrylamide gel. Electrophoresis was performed in 0.3× Tris-borate-EDTA (TBE) at 300 V for 90 min. Fluorescein fluorescence images were acquired with a Typhoon Phosphor Imager."}}, "data": [{"molecule": "ATPase: ATPase domain (aa 29–411) of human MORC4 (Q8TE76) (protein, UniProt Q8TE76 29-411, looked up, fragment) GIRLSTMSPRYLQSNSSSHTRPFSAIAELLDNAVDPDVSARTVFIDVEEVKNKSCLTFTDDGCGMTPHKLHRMLSFGFTDKVIKKSQCPIGVFGNGFKSGSMRLGKDALVFTKNGGTLTVGLLSQTYLECVQAQAVIVPIVPFNQQNKKMIITEDSLPSLEAILNYSIFNRENDLLAQFDAIPGKKGTRVLIWNIRRNKNGKSELDFDTDQYDILVSDFDTEEKMTGGVTSELPETEYSLRAFCGILYMKPRMKIFLRQKKVTTQMIAKSLANVEYDTYKPTFTNKQVRITFGFSCKNSNQFGIMMYHNNRLIKSFEKVGCQVKPTRGEGVGVIGVIECNFLKPAYNKQDFEYTKEYRLTINALAQKLNAYWKEKTSQDNFET", "values": [{"measurement": "catalytic (ATPase) activity of the protein", "setting": "MORC4", "result": "possesses little ATP hydrolyzing activity"}, {"measurement": "Rate of ATP hydrolysis", "setting": "MORC4; 1.0 µM protein, 2 mM ATP, pH 7.5, room temperature, absorbance 360 nm, Fig. 1b,c, mean", "result": 0.08049}, {"measurement": "Rate of ATP hydrolysis", "setting": "MORC4; Fig. 1b, replicate 4", "result": 0.02158}, {"measurement": "Rate of ATP hydrolysis", "setting": "MORC4; Fig. 1b, replicate 5", "result": 0.01439}, {"measurement": "interaction with CW by chemical shift perturbations", "setting": "MORC4 CW domain; 15N-labeled WT CW 0.1 mM, pH 7, 100 mM NaCl, 298 K", "result": "formation of the large ATPase:CW complex"}, {"measurement": "competition with H3 peptide for CW", "setting": "MORC4 CW domain; titration into the CW:H3 complex", "result": "disruption of the CW:H3 complex and formation of the complex between CW and the ATPase domain"}, {"measurement": "decrease in binding to NCP147 compared to NCP207", "setting": "NCP147 [1]; NCP147 vs NCP207 (peer review file)", "result": 5, "unit": "fold"}, {"measurement": "S1/2", "setting": "NCP147 [1]; fluorescence polarization, pH 7.5, 75 mM NaCl, room temperature, 10 min, mean of n = 3", "result": 2.3, "unit": "µM"}, {"measurement": "increase in interaction with NCP207 relative to NCP147", "setting": "NCP207; NCP207 vs NCP147", "result": "~ 5 fold"}, {"measurement": "S1/2", "setting": "NCP207; fluorescence polarization, 5 nM NCP207, pH 7.5, 75 mM NaCl, room temperature, 10 min, mean ± S.D. of n = 3", "result": "0.50 ± 0.08", "unit": "µM"}, {"measurement": "binding to NCP147 in EMSA", "setting": "NCP147 [2]", "result": "bound to NCP147"}]}]}
